Results from the supplement of paper PMC10126150.
± gives the standard deviation of the averaged measurements.

System: ATP
Test: switch fluorescence ratio, 500 uM ATP over buffer (Cy3 cluster intensity, sum of 5 cycles each) (fold (ratio)); higher = stronger signal-on switching upon ATP binding; sequences stand for … in TCGTCGGCAGCGTCAGATGTGTATAAGAGACAGTTTTTTTTTTTTTTTTTTTTTTTTT…TC
Conditions: aptamer strand: ATP DNA aptamer (quencher-CACCTGGGGGAGTATTGCGGAGGAAGG + anchor), 100 nM annealed; ATP concentration: 500 uM
In short: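 After annealing to 100 nM quencher-labelled ATP aptamer, Cy3-labelled switching-strand clusters on a modified Illumina MiSeq flow-cell were imaged in selection buffer. A second image followed after 15 min with 500 uM ATP at 22 °C, and five such buffer/ATP cycles were done, each separated by NaOH stripping and re-annealing. The fluorescence ratio, averaged per switch-domain sequence, is summed target-cycle over summed buffer-cycle Cy3 intensity per cluster, with clusters outside 100-1000 RFU excluded.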
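Also: ATP exposure 15 min at 22 °C before imaging.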

Sequence	switch fluorescence ratio
AAAGCCGAAT	0.99 ± 0.023
AAAGCCTTGG	0.973 ± 0.021
AAAGCGGTAT	1.038 ± 0.007
AAAGCGGTTG	0.98 ± 0.012
AAAGCTAGGA	0.979 ± 0.036
AAAGCTGCTT	0.987 ± 0.024
AAAGCTTGGA	1.03 ± 0.058
AAAGGAAAGT	1.01 ± 0.02
AAAGGACGGG	1.017 ± 0.0031
AAAGGAGCGT	0.992 ± 0.041
AAAGGAGGGG	0.983 ± 0.02
AAAGGATCGT	1.01 ± 0.02
AAAGGATTTG	0.97 ± 0.0034
AAAGGCCCGT	1 ± 0.0077
AAAGGCGCTG	0.984 ± 0.041
AAAGGGACGG	0.9829 ± 0.0091
AAAGGGAGGG	1 ± 0.02
AAAGGGCGGA	0.9884 ± 0.009
AAAGGGCGTG	0.985 ± 0.022
AAAGGGGACC	1.09 ± 0.053
AAAGGGGACG	1.01 ± 0.017
AAAGGGGGGT	0.989 ± 0.025
AAAGGGGTCG	1.07 ± 0.036

Sequence	switch fluorescence ratio
AAAGGGTCAG	0.996 ± 0.034
AAAGGGTCAT	0.9918 ± 0.0086
AAAGGGTTGG	1.02 ± 0.02
AAAGGTAATT	1.01 ± 0.015
AAAGGTATGG	0.961 ± 0.018
AAAGGTGCAC	0.968 ± 0.11
AAAGGTGCGG	0.9931 ± 0.0063
AAAGGTGGGT	1.51 ± 0.86
AAAGGTTGTT	1.013 ± 0.0037
AAAGTAGCCT	1.08 ± 0.057
AAAGTAGGTA	0.976 ± 0.011
AAAGTAGTAA	1.01 ± 0.037
AAAGTATATG	0.983 ± 0.029
AAAGTATTTG	1.01 ± 0.05
AAAGTATTTT	1.03 ± 0.067
AAAGTCGCGT	1 ± 0.032
AAAGTCTGGA	1.028 ± 0.01
AAAGTGCTAT	1.02 ± 0.048
AAAGTGCTCC	1.095 ± 0.0075
AAAGTGGCGT	0.984 ± 0.08
AAAGTGGTTG	0.984 ± 0.024
AAAGTGTGCT	1.01 ± 0.024
AAAGTGTTCC	1.03 ± 0.017

Sequence	switch fluorescence ratio
AAAGTGTTCG	0.9797 ± 0.0097
AAAGTTATGT	1 ± 0.045
AAAGTTGGTA	0.967 ± 0.055
AAAGTTGTCG	0.969 ± 0.051
AAAGTTTTCA	1.02 ± 0.028
AAAGTTTTGG	0.985 ± 0.026
AAAGTTTTGT	0.983 ± 0.023
AAATAAATTG	0.999 ± 0.044
AAATAAGTC	0.945 ± 0.024
AAATACGCAG	1.07 ± 0.1
AAATAGGGTG	1.13 ± 0.18
AAATATAAAC	1.03 ± 0.087
AAATATTGCG	0.997 ± 0.034
AAATCACGGA	1.44 ± 0.23
AAATCGCAGA	1 ± 0.025
AAATCGGATA	1.03 ± 0.003
AAATCGTACG	0.988 ± 0.048
AAATCTGGGT	0.97 ± 0.013
AAATCTGTAA	1.03 ± 0.06
AAATGAGCTT	0.986 ± 0.029
AAATGAGTGT	0.975 ± 0.026
AAATGCGTTA	1.01 ± 0.02
AAATGCGTTT	0.979 ± 0.019

Sequence	switch fluorescence ratio
AAATGGAGAC	1.01 ± 0.034
AAATGGAGGA	0.988 ± 0.032
AAATGGATAG	1.007 ± 0.0029
AAATGGATCG	1 ± 0.018
AAATGGCCAT	1.01 ± 0.013
AAATGGGGAA	1.004 ± 0.0069
AAATGGGTGG	0.997 ± 0.025
AAATGGTGTG	1.02 ± 0.019
AAATGGTTGT	1.01 ± 0.02
AAATGTTCTT	0.986 ± 0.031
AAATGTTGAT	1.03 ± 0.019
AAATTAAATC	0.993 ± 0.043
AAATTACTAG	1.01 ± 0.048
AAATTAGATG	1.009 ± 0.0051
AAATTAGGGA	0.978 ± 0.046
AAATTCGGGA	0.9799 ± 0.0032
AAATTCTGCG	0.941 ± 0.0098
AAATTGCTAG	0.997 ± 0.032
AAATTGGCAT	0.993 ± 0.028
AAATTGGGAT	0.9636 ± 0.0093
AAATTGGGCG	0.983 ± 0.021
AAATTGGGTA	0.991 ± 0.024
AAATTTAAAT	1.02 ± 0.024

Sequence	switch fluorescence ratio
AAATTTACAG	1.03 ± 0.04
AAATTTCATT	1 ± 0.041
AAATTTGGGC	0.961 ± 0.02
AAATTTTCC	1.34 ± 0.065
AACAACTTTT	1.04 ± 0.042
AACACAGGTA	1.06 ± 0.013
AACAGCTGTA	1.05 ± 0.062
AACAGGACAT	1.06 ± 0.017
AACAGGACGC	1.08 ± 0.1
AACAGGTGGG	1.24 ± 0.023
AACAGTCGCG	0.968 ± 0.024
AACAGTTGTG	0.976 ± 0.017
AACAGTTTTA	0.972 ± 0.011
AACATATGGG	1 ± 0.012
AACATGGAGG	0.968 ± 0.031
AACATTAGGC	1.05 ± 0.039
AACATTTTTC	1.01 ± 0.021
AACCAAAAAA	1.01 ± 0.019
AACCAAAGGT	1.014 ± 0.0017
AACCAATCGT	1.03 ± 0.041
AACCAGAGTA	1.011 ± 0.0039
AACCAGCTGG	1.04 ± 0.03
AACCAGTTAG	1.01 ± 0.021

Sequence	switch fluorescence ratio
AACCCACATC	1.303 ± 0.002
AACCCGAGCC	1.196 ± 0.011
AACCGGGGTT	0.996 ± 0.046
AACCGTTGAC	1.21 ± 0.02
AACCTCACTC	1.49 ± 0.13
AACCTCTCGG	1.033 ± 0.0039
AACCTGCTCG	1.1 ± 0.02
AACCTGGGTA	1.008 ± 0.0035
AACCTGTAGG	0.987 ± 0.021
AACCTTCGTG	1.62 ± 0.047
AACGAAACTT	1.123 ± 0.0042
AACGAATTCA	1.05 ± 0.017
AACGACGATC	1.11 ± 0.046
AACGACTGGG	0.997 ± 0.051
AACGAGTCGT	0.989 ± 0.029
AACGCAGCCT	1.11 ± 0.0027
AACGCAGGAG	1.48 ± 0.025
AACGCCAGGC	1.01 ± 0.028
AACGCCGCAT	1.858 ± 0.0036
AACGCTGGGT	1.0379 ± 0.00084
AACGGAGCTT	1.47 ± 0.25
AACGGATTCT	1.04 ± 0.016
AACGGCGCCA	0.983 ± 0.025

Sequence	switch fluorescence ratio
AACGGGAGAT	0.991 ± 0.048
AACGGGAGGG	1.04 ± 0.011
AACGGGCTAG	0.999 ± 0.014
AACGGGGAGC	0.983 ± 0.047
AACGGGGGCC	1.03 ± 0.066
AACGGGGGGA	0.979 ± 0.033
AACGGGGTAA	0.948 ± 0.037
AACGGGTGCG	0.995 ± 0.02
AACGGTACCG	0.981 ± 0.014
AACGGTGACG	1.03 ± 0.072
AACGGTTTTT	0.972 ± 0.036
AACGTAAATT	1.33 ± 0.31
AACGTAGTGT	1.01 ± 0.047
AACGTGACAG	1.06 ± 0.046
AACGTGGGTA	1.01 ± 0.026
AACGTGGTTT	1.01 ± 0.025
AACGTGTGTG	0.95018 ± 1.6e-05
AACGTTAGCG	1.002 ± 0.0045
AACGTTGCCC	1.01 ± 0.025
